Data reported in PMC3720604.

Molecular target: endogenous CK2β (human (endogenous in HeLa)) (UniProt P67870)
Experiment: co-IP; lysates (200 ug) of HeLa cells transfected with CK2α-HA or CK2α′-HA; consecutive rounds of immunoprecipitation with anti-CK2β sera and protein A sepharose, or mock control; supernatant and immunoprecipitate blotted for HA and CK2β; NP-40 alternative lysis buffer, 150 mM NaCl, 50 mM Tris pH 7.5

UniProt P67870, sequence (P67870 whole entry): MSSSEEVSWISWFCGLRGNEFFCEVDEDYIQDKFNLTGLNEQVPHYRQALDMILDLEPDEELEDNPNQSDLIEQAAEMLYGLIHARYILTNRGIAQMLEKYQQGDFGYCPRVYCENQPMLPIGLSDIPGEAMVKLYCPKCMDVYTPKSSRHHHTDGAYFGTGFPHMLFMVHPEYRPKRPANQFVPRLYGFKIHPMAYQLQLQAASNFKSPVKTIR
CK2α′-HA, sequence (P19784 whole entry): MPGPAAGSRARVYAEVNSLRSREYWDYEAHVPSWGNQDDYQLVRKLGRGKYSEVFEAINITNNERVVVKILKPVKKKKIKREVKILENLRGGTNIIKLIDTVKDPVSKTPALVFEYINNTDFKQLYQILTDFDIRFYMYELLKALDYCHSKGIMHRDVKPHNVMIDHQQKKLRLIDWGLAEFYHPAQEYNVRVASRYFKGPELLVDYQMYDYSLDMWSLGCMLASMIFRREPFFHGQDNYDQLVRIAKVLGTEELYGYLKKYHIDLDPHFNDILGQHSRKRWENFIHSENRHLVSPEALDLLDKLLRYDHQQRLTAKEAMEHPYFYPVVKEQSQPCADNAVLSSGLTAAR

percent depleted from the lysate by CK2β immunoprecipitation: > 90%
Substance: CK2α′-HA (from UniProt P19784 1-350) (enzyme)
